The text below walks through data of paper PMC8191316, “Structural basis for CD97 recognition of the decay-accelerating factor CD55 suggests mechanosensitive activation of adhesion GPCRs” (The Journal of Biological Chemistry, 2021).

As usually defined, the Kd is the constant that tells how readily two partners part at equilibrium. Read a high Kd as a looser complex. A word on the koff: it is a measure of how fast the partners let go of each other. A low value points to a long-lived complex. By kon is commonly meant the rate constant with which the complex forms. The low end stands for slower complex formation, the high end for faster complex formation.

The chains are these.
T1: CD55 SCR1–4 domains (35–285), His-tagged (human, UniProt P08174 35-285)
T1 construct: CD55 (complement decay-accelerating factor), human, UniProt P08174, SCR1–4 domains, residues 35–285; Vector pLEXm with N-terminal signal peptide; codon-optimized gene; In the crystal and SAXS rows it stood as the C-terminal part of the chimera m9; also called decay-accelerating factor; not shown: His6, C-terminal, kept
T1 sequence (looked up): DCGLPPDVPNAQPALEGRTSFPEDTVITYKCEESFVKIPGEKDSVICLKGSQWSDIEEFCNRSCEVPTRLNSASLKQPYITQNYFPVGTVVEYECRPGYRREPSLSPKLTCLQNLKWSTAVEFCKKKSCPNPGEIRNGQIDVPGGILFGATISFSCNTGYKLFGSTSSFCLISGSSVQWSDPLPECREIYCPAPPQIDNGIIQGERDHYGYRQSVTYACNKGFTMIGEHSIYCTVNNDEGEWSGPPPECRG

T2: CD97 EGF_(1,2,5) fragment D81A, without His-tag (human, UniProt P48960-2 21-165, D81A)
T2 sequence: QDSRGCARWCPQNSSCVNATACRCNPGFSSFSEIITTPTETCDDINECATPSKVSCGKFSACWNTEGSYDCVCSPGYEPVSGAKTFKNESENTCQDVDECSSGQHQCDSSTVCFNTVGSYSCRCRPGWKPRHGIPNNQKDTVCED

T3: CD97 EGF_(1,2,5) fragment D63L, without His-tag (human, UniProt P48960-2 21-165, D63L)
T3 sequence: T2 sequence with D43L, A61D

T4: CD97 EGF_(1,2,5) fragment V137A, without His-tag (human, UniProt P48960-2 21-165, V137A)
T4 sequence: T2 sequence with A61D, V117A

T5: CD97 EGF_(1,2,5) fragment E86A, without His-tag (human, UniProt P48960-2 21-165, E86A)
T5 sequence: T2 sequence with A61D, E66A

B1: EMR2 EGF_(1,2,5) (24–168) fragment, His6 removed (domain or fragment)
chain: T2 sequence with N13D, T39M, P51L, A61D
B2: CD97 EGF_(1,2,5) fragment D63L, without His-tag (domain or fragment, human, UniProt P48960-2 21-165, looked up)
chain: T2 sequence with D43L, A61D
notes: CD97, human, EGF_(1,2,5) isoform fragment, residues 21–165, with D63L; Made by overlapping PCR, cloned to the same vector as m3; not shown: His6, C-terminal, cleaved
B3: CD97 EGF_(1,2,5) fragment V137A, without His-tag (domain or fragment, human, UniProt P48960-2 21-165, looked up)
chain: T2 sequence with A61D, V117A
notes: CD97, human, EGF_(1,2,5) isoform fragment, residues 21–165, with V137A (in EGF5); Made by overlapping PCR, cloned to the same vector as m3; also called V137A mutant; not shown: His6, C-terminal, cleaved
B4: CD97 EGF_(1,2,5) fragment E86A, without His-tag (domain or fragment, human, UniProt P48960-2 21-165, looked up)
chain: T2 sequence with A61D, E66A
notes: CD97, human, EGF_(1,2,5) isoform fragment, residues 21–165, with E86A; Made by overlapping PCR, cloned to the same vector as m3; not shown: His6, C-terminal, cleaved
B5: CD97 EGF_(1,2,5) fragment D81A, without His-tag (domain or fragment, human, UniProt P48960-2 21-165, looked up)
chain: T2 sequence
notes: CD97, human, EGF_(1,2,5) isoform fragment, residues 21–165, with D81A; Made by overlapping PCR, cloned to the same vector as m3; not shown: His6, C-terminal, cleaved
B6: CD55 SCR1–4 domains (35–285), His-tagged (domain or fragment)
chain: T1 sequence (looked up)

Assay [1] concerns the target CD55 SCR1–4 domains (35–285), His-tagged (human) (UniProt P08174). Kind of assay: SPR; Biacore T200; His-tagged CD55 immobilized on nickel coated NTA chip; CD97 (WT, mutants) or EMR2 without His-tag injected at 50 μl/min for 2 min; 20 mM Tris, pH 7.5, 200 mM NaCl, 2 mM CaCl2, 0.05% Tween 20.
Assay [2] has as its target B6. The assay is described as follows: SPR. Background: Surface plasmon resonance follows binding to a sensor surface in real time, without labels.
Assay [3] concerns the target T1, CD55 SCR1–4 domains (35–285), His-tagged. The assay is described as follows: SPR; Biacore T200; His-tagged CD55 immobilized on nickel coated NTA chip; CD97 (WT, mutants) or EMR2 without His-tag injected at 50 μl/min for 2 min; 20 mM Tris, pH 7.5, 200 mM NaCl, 2 mM CaCl2, 0.05% Tween 20. To be noted: both partners purified.
Assay [4] concerns the target T2, CD97 EGF_(1,2,5) fragment D81A, without …. The assay is described as follows: SPR.
In assay [5] the target is T3, CD97 EGF_(1,2,5) fragment D63L, without …. The assay is described as follows: SPR.
Assay [6] concerns the target T4, CD97 EGF_(1,2,5) fragment V137A, …. The assay is described as follows: SPR.
Assay [7] concerns the target T5, CD97 EGF_(1,2,5) fragment E86A, without …. Kind of assay: SPR.

Changes are numbered by the printed parent chain. Numbers in names are those of the source.

“CD97 EGF_(1,2,5) fragment, WT, without His-tag (SPR construct with TEV site) (from UniProt P48960-2 21-165) (domain or fragment)”: in assay [1], the Kd is 3.2 µM, the koff was determined as 0.00173 s⁻¹ and the kon turned out to be 546 M⁻¹ s⁻¹. B1 returned a koff in assay [2] of 0.00149 s⁻¹. In addition, in assay [1], the Kd amounted to 43 µM. B2: the Kd in assay [3] was found to be 85.2 µM. On the same count and under the same terms, to B3 belongs 25.3 µM; to B4, 17.6 µM.

B5: in assay [3], the Kd was 66.4 µM.

Regarding B6, the off-rate (koff) in assay [4] stood at 0.00122 s⁻¹; in assay [5], 0.000968 s⁻¹; in assay [6] it was 0.00163 s⁻¹; in assay [7], 0.00141 s⁻¹.
